# Measured values as given in US20250326792A1, “A FORMULATION FOR TREATMENT OF PIGMENTARY DISORDERS” (priority 2022, published 2025).
# PHPP = 3-Phenylpyrazolo[3,4-d]pyrimidine (N-terminal cap)
# What was measured:
# [1] = Stability of IS103 API, accelerated (Condition 1, 5±3° C.); type: physicochemical
# Experimental: The purpose of stability testing is to provide evidence on how the quality of a drug substance or drug product varies with time under the influence of a variety of environmental factors such as temperature, humidity, etc. and to establish a re-test period for the drug substance or a shelf life for the drug product and recommended storage conditions. The study was conducted according to the WHO and schedule-Y guidelines.
# The IS103 API is a lyophilized white fluffy powder, and it was filled at sterile condition in glass injection vial which has airlock-rubber capping. This container closure system is same as or simulates the packaging proposed for storage and distribution.
# The following test attributes have been selected according to the above said guidelines: • appearance; odour; colour; colour of solution (when IS103 API is soluble in solvent); clarity of solution; degradation and assessment of container closure system.
# The studies were conducted under appropriate storage conditions (with appropriate tolerances) that test IS103 API thermal stability and its sensitivity to moisture. The IS103 API is intended for storage for 36 months. Accordingly, long term stability studies were done for 36 months. The details of the storage conditions have been furnished hereunder.
# [2] = test system: NHEM cells; experiment: Melanin content assay in NHEM cells; type: cell-based, Human; details: for % increase in melanin content compared to control / Fold change in melanin content: NHEM CELLS
# Experimental: Culture and maintenance of cell lines: B16F10 cells were cultured in RPMI containing 10% fetal bovine serum, 100 units per millilitre (U/mL) penicillin, 0.1 mg/mL streptomycin, and 0.25 microgram per millilitre (μg/mL) amphotericin B at 37 degrees Celsius in a humidified 95% air/5% CO2 incubator. Drug treatment was done 24 hours after seeding. Cells were harvested 48 hours later and melanin content and tyrosinase activity determined in triplicate. NHEM cells were cultured in DMEM containing 10% fetal bovine serum, 100 units per milliliter (U/mL) penicillin, 0.1 mg/mL streptomycin, and 0.25 microgram per millilitre (μg/mL) amphotericin B at 37 degrees Celsius in a humidified 95% air/5% CO2 incubator. Drug treatment was done 24 hours after seeding. Cells were harvested 48 hours later and melanin content and tyrosinase activity determined in triplicate.
# IS103 was dissolved in water for injection or DMSO to prepare stock solution of about 50 mg/ml. The stock solution was used for preparation of subsequent dilutions in solvent to achieve working dilutions for treatment ranging 0.1 μg/ml to 1000 μg/ml.
# Cells were seeded in a 6-well plate (2×10^4 cells/well) and incubated overnight to allow the cells to adhere. After treating with various test samples for 4 or 5 days, cells were washed with phosphate-buffered saline (PBS), trypsinized, counted, and then lysed in 1 N NaOH at 100° C. for about 1 hour. The melanin content in each sample was calculated by comparison of absorbance at 400 nm of unknown samples with a standard curve obtained using synthetic melanin. IS103 enhances melanin synthesis in a dose dependent manner without significant toxicity. B16F10 and NHEM cells were treated with different concentrations of IS103 ranging from 0.1 to 1000 μg/ml and analysed melanin contents in cells. It was observed that IS103 was able to enhance pigmentation of B16F10 and NHEM cells in a dose-dependent manner (Table 18 and FIGS. 4 and 5). […] To assess the toxicity of the IS103 peptide, cell viability was analyzed by MTT assay.
# [3] = test system: NHEM cells; experiment: Cell viability (XTT assay) in NHEM cells; type: cell-based, Human; details: 1000 μg/ml for about 48 hours
# Experimental: Culture and maintenance of cell lines: B16F10 cells were cultured in RPMI containing 10% fetal bovine serum, 100 units per millilitre (U/mL) penicillin, 0.1 mg/mL streptomycin, and 0.25 microgram per millilitre (μg/mL) amphotericin B at 37 degrees Celsius in a humidified 95% air/5% CO2 incubator. Drug treatment was done 24 hours after seeding. Cells were harvested 48 hours later and melanin content and tyrosinase activity determined in triplicate. […] […]
# B16F10 and NHEM cells were sub-cultured into 96-well culture plates at a density of 1×10^4 cells/well in 100 μL medium and after about 24 hours of incubation, the medium was discarded and replaced with 100 μL of a suitable medium (RPMI for B16F10 and DMEM for NHEM with 1% FBS) for starvation and then treated in the presence or absence of various concentrations of test compound and positive controls (IBMX and α-MSH). […] At the end of the incubation, about 50 μL of XTT test solution prepared by mixing about 5 mL of XTT-labeling reagent and about 100 μL of electron coupling reagent is added to each well and after about 4 hours of incubation at 37° C. and a about 5% CO2 incubator, the absorbance was measured on an ELISA reader at a test wavelength of 490 nm.
substance,measurement,setting,value
PHPP-Tyr-Arg-Ser-Arg-Lys-Tyr-Ser-Ser-Trp-Tyr-NH2 ({PHPP}-YRSRKYSSWY-NH2) [IS103],API calculated on the anhydrous basis,"[1]; 5±3° C., 1 M",99.68%
same,Appearance white to off white amorphous powder,"[1]; 5±3° C., 1 M",White
same,Related substances (By HPLC) Any Max Impurity,"[1]; 5±3° C., 1 M",0.35%
same,Related substances (By HPLC) Total Impurity,"[1]; 5±3° C., 1 M",2.23%
same,Solubility Sparingly soluble in water,"[1]; 5±3° C., 1 M",Complies
same,Water Content (By Karl Fischer-Titrator),"[1]; 5±3° C., 1 M",4.27% w/w
same,Internal change in attributes: Appearance,"[1]; 5±3° C., 1st month",No change
same,Internal change in attributes: Clarity of solution,"[1]; 5±3° C., 1st month",No change
same,Internal change in attributes: Color,"[1]; 5±3° C., 1st month",No change
same,Internal change in attributes: Color of solution,"[1]; 5±3° C., 1st month",No change
same,Internal change in attributes: Odor,"[1]; 5±3° C., 1st month",No change
same,Internal change in attributes: Appearance,"[1]; 5±3° C., 2nd month",No change
same,Internal change in attributes: Clarity of solution,"[1]; 5±3° C., 2nd month",No change
same,Internal change in attributes: Color,"[1]; 5±3° C., 2nd month",No change
same,Internal change in attributes: Color of solution,"[1]; 5±3° C., 2nd month",No change
same,Internal change in attributes: Odor,"[1]; 5±3° C., 2nd month",No change
same,API calculated on the anhydrous basis,"[1]; 5±3° C., 3 M",99.14%
same,Appearance white to off white amorphous powder,"[1]; 5±3° C., 3 M",White
same,Related substances (By HPLC) Any Max Impurity,"[1]; 5±3° C., 3 M",0.40%
same,Related substances (By HPLC) Total Impurity,"[1]; 5±3° C., 3 M",2.30%
same,Solubility Sparingly soluble in water,"[1]; 5±3° C., 3 M",Complies
same,Water Content (By Karl Fischer-Titrator),"[1]; 5±3° C., 3 M",4.29% w/w
same,Internal change in attributes: Appearance,"[1]; 5±3° C., 3rd month",No change
same,Internal change in attributes: Clarity of solution,"[1]; 5±3° C., 3rd month",No change
same,Internal change in attributes: Color,"[1]; 5±3° C., 3rd month",No change
same,Internal change in attributes: Color of solution,"[1]; 5±3° C., 3rd month",No change
same,Internal change in attributes: Odor,"[1]; 5±3° C., 3rd month",No change
same,API calculated on the anhydrous basis,"[1]; 5±3° C., 6 M",99.00%
same,Appearance white to off white amorphous powder,"[1]; 5±3° C., 6 M",White
same,Related substances (By HPLC) Any Max Impurity,"[1]; 5±3° C., 6 M",0.49%
same,Related substances (By HPLC) Total Impurity,"[1]; 5±3° C., 6 M",2.44%
same,Solubility Sparingly soluble in water,"[1]; 5±3° C., 6 M",Complies
same,Water Content (By Karl Fischer-Titrator),"[1]; 5±3° C., 6 M",4.87% w/w
same,Internal change in attributes: Appearance,"[1]; 5±3° C., 6th month",No change
same,Internal change in attributes: Clarity of solution,"[1]; 5±3° C., 6th month",No change
same,Internal change in attributes: Color,"[1]; 5±3° C., 6th month",No change
same,Internal change in attributes: Color of solution,"[1]; 5±3° C., 6th month",No change
same,Internal change in attributes: Odor,"[1]; 5±3° C., 6th month",No change
same,API calculated on the anhydrous basis,"[1]; 5±3° C., Initial",99.73%
same,Appearance white to off white amorphous powder,"[1]; 5±3° C., Initial",White
same,Related substances (By HPLC) Any Max Impurity,"[1]; 5±3° C., Initial",0.39%
same,Related substances (By HPLC) Total Impurity,"[1]; 5±3° C., Initial",2.09%
same,Solubility Sparingly soluble in water,"[1]; 5±3° C., Initial",Complies
same,Water Content (By Karl Fischer-Titrator),"[1]; 5±3° C., Initial",4.18% w/w
same,found to be stable for,"[1]; accelerated condition, 5±3° C.",6 months
same,stable for,[1]; refrigerator (5±3° C.) conditions,36 months
same,% increase in melanin content compared to control,[2]; 0.1 μg/mL,0%
same,Fold change in melanin content,[2]; 0.1 μg/mL,1.0 ± 0.20
same,% increase in melanin content compared to control,[2]; 1 μg/mL,0%
same,Fold change in melanin content,[2]; 1 μg/mL,1.0 ± 0.20
same,% increase in melanin content compared to control,[2]; 10 μg/mL,0%
same,Fold change in melanin content,[2]; 10 μg/mL,1.0 ± 0.20
same,% increase in melanin content compared to control,[2]; 50 μg/mL,40%
same,Fold change in melanin content,[2]; 50 μg/mL,1.4 ± 0.20
same,% increase in melanin content compared to control,[2]; 100 μg/mL,130%
same,Fold change in melanin content,[2]; 100 μg/mL,2.3 ± 0.20
same,% increase in melanin content compared to control,[2]; 250 μg/mL,160%
same,Fold change in melanin content,[2]; 250 μg/mL,2.6 ± 0.20
same,% increase in melanin content compared to control,[2]; 500 μg/mL,180%
same,Fold change in melanin content,[2]; 500 μg/mL,2.8 ± 0.20
same,% increase in melanin content compared to control,[2]; 1000 μg/mL,165%
same,Fold change in melanin content,[2]; 1000 μg/mL,2.7 ± 0.20
same,effect on melanin synthesis (FIG. 5),"[2]; NHEM cells, different concentrations, about 48 hours",enhanced melanin synthesis in a dose-dependent manner
same,effect on cell viability,[3],did not exert any significant effect on cell viability
